The results in this text go back to patent CN111748039A.

This test concerns the target 重组CEA蛋白 (UniProt P06731).
Chain of UniProt P06731 (P06731 35-685 limits assumed): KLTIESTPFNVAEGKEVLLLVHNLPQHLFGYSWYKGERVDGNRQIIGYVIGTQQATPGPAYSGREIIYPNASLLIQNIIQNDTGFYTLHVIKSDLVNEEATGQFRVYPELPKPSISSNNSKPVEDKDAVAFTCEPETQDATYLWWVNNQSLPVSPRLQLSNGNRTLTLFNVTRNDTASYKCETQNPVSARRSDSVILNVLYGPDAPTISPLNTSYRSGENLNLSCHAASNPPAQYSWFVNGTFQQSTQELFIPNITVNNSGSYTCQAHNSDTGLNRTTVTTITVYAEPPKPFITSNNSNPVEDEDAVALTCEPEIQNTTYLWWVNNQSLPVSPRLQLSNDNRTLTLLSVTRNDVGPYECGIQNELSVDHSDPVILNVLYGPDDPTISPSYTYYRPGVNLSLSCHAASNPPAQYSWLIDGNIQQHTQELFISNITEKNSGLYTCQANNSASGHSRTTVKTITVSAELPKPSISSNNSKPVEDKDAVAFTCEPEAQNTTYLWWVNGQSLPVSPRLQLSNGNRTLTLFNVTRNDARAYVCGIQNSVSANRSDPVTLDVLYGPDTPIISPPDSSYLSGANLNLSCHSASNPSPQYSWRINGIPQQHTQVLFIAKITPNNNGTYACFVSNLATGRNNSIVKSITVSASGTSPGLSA

B1: 1#单抗 (antibody, mouse IgG1, kappa, V domains shown)
VH: QIQLVQSGPELKKPGETVKISCKTSGYTFTNYAMNWVKQAPGKGLKWMGWINTNTGEPTYAEEFKGRFAFSLETSATAAYLQINNLKNDDTASYFCARGWVLYAMDYWGQGTSVTVSS
VL: DIQMTQTTSSLSASLGDRVTISCRASQDISNYLNWYQQKSDGTVKLLIYYTSRLHSGVPSRFSGSGSGTDYSLTISNLDPEDVATYFCQQGDMFMFGGGTKLEIRT
As for B1, the 效价 (titer) stood at 100000.
